Laboratory results reported in patent US20230151111A1 (AKESO BIOPHARMA, published 2023).

T1: CD73 on cell membrane surface (MDA-MB-231, U87-MG) (human, UniProt P21589 27-549)
T1 sequence (looked up): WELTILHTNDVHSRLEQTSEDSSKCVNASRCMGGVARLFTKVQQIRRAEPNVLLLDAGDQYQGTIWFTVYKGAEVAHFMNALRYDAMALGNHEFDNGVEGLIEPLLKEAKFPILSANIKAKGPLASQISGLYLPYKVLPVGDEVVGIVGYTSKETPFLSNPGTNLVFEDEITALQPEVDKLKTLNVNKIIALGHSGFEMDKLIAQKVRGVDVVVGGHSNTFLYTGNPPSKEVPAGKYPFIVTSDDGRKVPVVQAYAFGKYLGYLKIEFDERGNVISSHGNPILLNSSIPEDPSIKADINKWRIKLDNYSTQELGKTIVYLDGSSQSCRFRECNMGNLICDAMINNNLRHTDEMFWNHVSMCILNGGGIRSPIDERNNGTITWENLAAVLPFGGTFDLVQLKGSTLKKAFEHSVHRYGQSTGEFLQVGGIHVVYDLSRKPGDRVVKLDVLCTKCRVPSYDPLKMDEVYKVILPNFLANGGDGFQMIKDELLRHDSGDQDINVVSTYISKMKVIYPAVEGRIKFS

T2: human NT5E-Biotin (human, UniProt P21589 27-552, limits assumed, biotin label, site not stated)
T2 construct: Captured on streptavidin-coated plates; also called human NTSE-Biotin
T2 sequence (looked up): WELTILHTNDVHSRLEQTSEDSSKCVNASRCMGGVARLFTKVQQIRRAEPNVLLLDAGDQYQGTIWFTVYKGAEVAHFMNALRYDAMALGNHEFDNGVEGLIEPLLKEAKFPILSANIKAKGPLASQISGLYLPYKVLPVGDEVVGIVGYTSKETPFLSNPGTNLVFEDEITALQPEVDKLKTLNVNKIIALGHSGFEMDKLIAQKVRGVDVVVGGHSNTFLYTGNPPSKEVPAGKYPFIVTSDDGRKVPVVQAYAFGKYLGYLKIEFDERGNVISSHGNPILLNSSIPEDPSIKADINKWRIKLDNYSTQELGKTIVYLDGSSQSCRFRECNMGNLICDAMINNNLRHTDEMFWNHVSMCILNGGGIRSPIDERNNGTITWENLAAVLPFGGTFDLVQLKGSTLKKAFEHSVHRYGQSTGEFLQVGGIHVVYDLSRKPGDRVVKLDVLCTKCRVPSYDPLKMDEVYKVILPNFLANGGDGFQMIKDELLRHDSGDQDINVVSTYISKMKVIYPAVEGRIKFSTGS

B1: MEDI9447 (antibody, V domains shown)
VH: EVQLLESGGGLVQPGGSLRLSCAASGFTFSSYAYSWVRQAPGKGLEWVSAISGSGGRTYYADSVKGRFTISRDNSKNTLYLQMNSLRAEDTAVYYCARLGYGRVDEWGRGTLVTVSS
VL: QSVLTQPPSASGTPGQRVTISCSGSLSNIGRNPVNWYQQLPGTAPKLLIYLDNLRLSGVPDRFSGSKSGTSASLAISGLQSEDEADYYCATWDDSHPGWTFGGGTKLTVLG
B2: 14C12H1L1 (antibody, human IgG1, kappa)
heavy: not shown
light: DIQMTQSPSSMSASVGDRVTFTCRASQDINTYLSWFQQKPGKSPKTLIYRANRLVSGVPSRFSGSGSGQDYTLTISSLQPEDMATYYCLQYDEFPLTFGAGTKLELKRTVAAPSVFIFPPSDEQLKSGTASVVCLLNNFYPREAKVQWKVDNALQSGNSQESVTEQDSKDSTYSLSSTLTLSKADYEKHKVYACEVTHQGLSSPVTKSFNRGEC
notes: Humanized anti-PD-1 IgG1/kappa
B3: P1D7V02R (bispecific antibody, human IgG1, kappa)
heavy: not shown
light: B2 light
notes: Morrison form IgG-scFv

How the values were obtained:
[1] = molecular target: T1, CD73 on cell membrane surface …; assay: cell-based or functional assay
[2] = molecular target: T1, CD73 on cell membrane surface …; assay: flow cytometry, MDA-MB-231 cells
Protocol: (§1) MDA-MB-231 cells in logarithmic phase were digested with conventional trypsin and transferred to a 1.5 mL centrifuge tube at 3×10⁵ cells/tube. 500 μL of PBSA was added, and the mixture was centrifuged at 5600 rpm for 5 min to remove the supernatant. […] The system was mixed gently and uniformly, and then was incubated on ice for 1 h. Then 500 μL of PBSA was added, and the mixture was centrifuged at 5600 rpm for 5 min to remove the supernatant. […] 500 μL of PBSA was added, and the mixture was centrifuged at 5600 rpm for 5 min to remove the supernatant. At last, 200 μL of PBSA was added to resuspend cell precipitates, and the mixture was transferred to a flow tube for FACSCalibur detection.

[3] = molecular target: T1, CD73 on cell membrane surface …; assay: flow cytometry, MDA-MB-231 cells; antibody 0.05 nM
Protocol: as §1

[4] = molecular target: T1, CD73 on cell membrane surface …; assay: flow cytometry, MDA-MB-231 cells; antibody 0.14 nM
Protocol: as §1

[5] = molecular target: T1, CD73 on cell membrane surface …; assay: flow cytometry, MDA-MB-231 cells; antibody 0.41 nM
Protocol: as §1

[6] = molecular target: T1, CD73 on cell membrane surface …; assay: flow cytometry, MDA-MB-231 cells; antibody 1.23 nM
Protocol: as §1

[7] = molecular target: T1, CD73 on cell membrane surface …; assay: flow cytometry, MDA-MB-231 cells; antibody 3.70 nM
Protocol: as §1

[8] = molecular target: T1, CD73 on cell membrane surface …; assay: flow cytometry, MDA-MB-231 cells; antibody 11.11 nM
Protocol: as §1

[9] = molecular target: T1, CD73 on cell membrane surface …; assay: flow cytometry, MDA-MB-231 cells; antibody 33.33 nM
Protocol: as §1

[10] = molecular target: T1, CD73 on cell membrane surface …; assay: flow cytometry, MDA-MB-231 cells; antibody 100.00 nM
Protocol: as §1

[11] = molecular target: T3, PD-1-mFc (human, UniProt Q15116 25-170, limits assumed); assay: ELISA, PD-1-mFc coated
T3 construct: also called human PD-1-mFc
Protocol: A microplate was coated with PD-1-mFc at 0.5 μg/mL and incubated at 4° C. overnight. Then the microplate coated with antigens was washed once with PBST, and then blocked with a PBS solution containing 1% BSA as blocking solution at 37° C. for 2 h. After blocking, the microplate was washed 3 times with PBST. The microplate containing the test antibodies was incubated at 37° C. for 30 min, and then washed 3 times with PBST. […] After incubation, the plate was washed 4 times with PBST, TMB (Neogen, 308177) was added in the dark for chromogenesis for 5 min, and then a stop solution was added to terminate chromogenic reaction. The microplate was put into a microplate reader immediately, and the OD value of each well in the microplate was read at 450 nm. The data were analyzed and processed by SoftMax Pro 6.2.1,

[12] = molecular target: T4, PD-1 on 293T-PD1 cell surface (human, UniProt Q15116 25-288); assay: flow cytometry, 293T-PD1 cells
T4 construct: whole, on cells
Protocol: as §1, with “500” for “MDA-MB-231 cells in logarithmic phase were digested with conventional trypsin and transferred to a 1.5 mL centrifuge tube at 3×10⁵ cells/tube. 500”

[13] = molecular target: T4, PD-1 on 293T-PD1 cell surface; assay: flow cytometry, 293T-PD1 cells; antibody 0.05 nM
Protocol: as §1, with “500” for “MDA-MB-231 cells in logarithmic phase were digested with conventional trypsin and transferred to a 1.5 mL centrifuge tube at 3×10⁵ cells/tube. 500”

[14] = molecular target: T4, PD-1 on 293T-PD1 cell surface; assay: flow cytometry, 293T-PD1 cells; antibody 0.14 nM
Protocol: as §1, with “500” for “MDA-MB-231 cells in logarithmic phase were digested with conventional trypsin and transferred to a 1.5 mL centrifuge tube at 3×10⁵ cells/tube. 500”

[15] = molecular target: T4, PD-1 on 293T-PD1 cell surface; assay: flow cytometry, 293T-PD1 cells; antibody 0.41 nM
Protocol: as §1, with “500” for “MDA-MB-231 cells in logarithmic phase were digested with conventional trypsin and transferred to a 1.5 mL centrifuge tube at 3×10⁵ cells/tube. 500”

[16] = molecular target: T4, PD-1 on 293T-PD1 cell surface; assay: flow cytometry, 293T-PD1 cells; antibody 1.23 nM
Protocol: as §1, with “500” for “MDA-MB-231 cells in logarithmic phase were digested with conventional trypsin and transferred to a 1.5 mL centrifuge tube at 3×10⁵ cells/tube. 500”

[17] = molecular target: T4, PD-1 on 293T-PD1 cell surface; assay: flow cytometry, 293T-PD1 cells; antibody 3.70 nM
Protocol: as §1, with “500” for “MDA-MB-231 cells in logarithmic phase were digested with conventional trypsin and transferred to a 1.5 mL centrifuge tube at 3×10⁵ cells/tube. 500”

[18] = molecular target: T4, PD-1 on 293T-PD1 cell surface; assay: flow cytometry, 293T-PD1 cells; antibody 33.33 nM
Protocol: as §1, with “500” for “MDA-MB-231 cells in logarithmic phase were digested with conventional trypsin and transferred to a 1.5 mL centrifuge tube at 3×10⁵ cells/tube. 500”

[19] = molecular target: T4, PD-1 on 293T-PD1 cell surface; assay: flow cytometry, 293T-PD1 cells; antibody 100.00 nM
Protocol: as §1, with “500” for “MDA-MB-231 cells in logarithmic phase were digested with conventional trypsin and transferred to a 1.5 mL centrifuge tube at 3×10⁵ cells/tube. 500”

[20] = molecular target: T3, PD-1-mFc; assay: BLI (Fortebio), antibody on AHC sensor, PD-1-mFc 0.6-50 nM, 37 C
Protocol: The sample dilution buffer was PBST, 0.1% BSA, pH 7.4. The antibody was immobilized on an AHC sensor at a concentration of 5 μg/mL with an immobilization height of about 0.4 nm. The sensor was equilibrated in a buffer for 60 s, and the binding of the immobilized antibody on the sensor to the antigen PD-1-mFc at concentrations of 0.6-50 nM (three-fold dilution) was determined in 120 s. The protein was dissociated in the buffer for 180 s. The detection temperature was 37° C., the detection frequency was 0.3 Hz, and the sample plate shaking rate was 1000 rpm. The data were analyzed by 1:1 model fitting to obtain affinity constants.

[21] = molecular target: T2, human NT5E-Biotin; assay: ELISA, NT5E-biotin on streptavidin
Protocol: A microplate was coated with streptavidin at 2 μg/mL and then incubated at 4° C. overnight. After incubation, the microplate coated with streptavidin was washed once with PBST, and blocked with a PBS solution containing 1% BSA as a microplate blocking solution at 37° C. for 2 h. After blocking, the microplate was washed 3 times with PBST. Then, 0.5 μg/mL antigen human NTSE-Biotin was added and incubated at 37° C. for 30 min. Then, the plate was washed 3 times with PBST. The antibodies serially diluted with PBST solution (the dilution gradients for the antibody are shown in Table 3) were added to wells of the microplate. The microplate containing the test antibodies was incubated at 37° C. for 30 min, and then washed 3 times with PBST. […] After incubation, the plate was washed 4 times with PBST, TMB (Neogen, 308177) was added in the dark for chromogenesis for 5 min, and then a stop solution was added to terminate chromogenic reaction. The microplate was put into a microplate reader immediately, and the OD value of each well in the microplate was read at 450 nm. The data were analyzed and processed by SoftMax Pro 6.2.1.

[22] = molecular target: T4, PD-1 on 293T-PD1 cell surface; assay: flow cytometry, 293T-PD1 cells; antibody 11.11 nM
Protocol: as §1, with “500” for “MDA-MB-231 cells in logarithmic phase were digested with conventional trypsin and transferred to a 1.5 mL centrifuge tube at 3×10⁵ cells/tube. 500”

[23] = molecular target: T5, human PD-1-mFc-biotin (human, UniProt Q15116 25-170, limits assumed, biotin label, site not stated); assay: competitive ELISA, blocking of PD-1-mFc-biotin binding to coated PD-L1-mFc
Protocol: (§2) After incubation, the microplate was blocked with a PBS solution containing 1% BSA at 37° C. for 2 h. After blocking, the plate was washed three times and dried. The antibody was serially diluted to 7 concentrations in a gradient ratio of 1:3 on a dilution plate with 10 μg/mL as the starting concentration, and a blank control was set. […] Then the mixture after reaction was added to the coated microplate, and the microplate was incubated for at 37° C. for 30 min. After incubation, the plate was washed three times with PBST and dried. SA-HRP (KPL, 14-30-00) working solution was added, and the plate was incubated at 37° C. for 30 min. After incubation, the plate was washed four times and patted dry. Then TMB (Neogen, 308177) was added in the dark for chromogenesis for 5 min, and a stop solution was added to terminate chromogenic reaction. Then the microplate was put into a microplate reader immediately, and the OD value of each well in the microplate was read at 450 nm. The data were analyzed and processed by SoftMax Pro 6.2.1.

[24] = molecular target: T5, human PD-1-mFc-biotin; assay: competitive ELISA, competitor coated PD-L1-mFc; antibody 5 ug/mL diluted 1:3
Protocol: as §2

T4 sequence (Q15116 25-288): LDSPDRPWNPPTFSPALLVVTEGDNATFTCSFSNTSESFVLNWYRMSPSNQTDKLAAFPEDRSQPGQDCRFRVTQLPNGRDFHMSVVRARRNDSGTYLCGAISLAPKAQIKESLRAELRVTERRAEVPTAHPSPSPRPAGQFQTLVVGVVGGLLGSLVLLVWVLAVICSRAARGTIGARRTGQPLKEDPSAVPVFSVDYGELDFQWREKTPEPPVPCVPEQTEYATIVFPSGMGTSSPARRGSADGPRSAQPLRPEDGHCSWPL
T3 sequence (Q15116 other isoform, or with tags, fused parts or gaps limits assumed): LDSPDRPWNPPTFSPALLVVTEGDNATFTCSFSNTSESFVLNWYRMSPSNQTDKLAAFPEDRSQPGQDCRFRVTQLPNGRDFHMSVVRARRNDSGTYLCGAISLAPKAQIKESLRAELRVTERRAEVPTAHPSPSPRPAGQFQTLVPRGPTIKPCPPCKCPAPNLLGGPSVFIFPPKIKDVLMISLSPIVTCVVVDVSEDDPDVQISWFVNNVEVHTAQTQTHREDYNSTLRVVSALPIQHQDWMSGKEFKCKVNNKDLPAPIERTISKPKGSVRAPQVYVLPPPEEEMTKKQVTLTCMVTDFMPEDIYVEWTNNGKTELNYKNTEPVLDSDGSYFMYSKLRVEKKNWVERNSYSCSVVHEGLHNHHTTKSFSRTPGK
T5 sequence (Q15116 other isoform, or with tags, fused parts or gaps limits assumed): as above

Binder	EC50 [11] [nM]	EC50 [12] [nM]	FACS signal [13]	FACS signal [14]	FACS signal [15]	FACS signal [16]	FACS signal [17]	FACS signal [18]	FACS signal [19]	further results
B1	–	–	–	–	–	–	–	–	–	IC50 (nM), inhibition of enzyme activity of CD73 on U87-MG cell membrane surface [1]: 0.119 nM; EC50 [2]: 1.59 nM; FACS signal [3]: 32.6; FACS signal [4]: 64.4; FACS signal [5]: 158; FACS signal [6]: 389; FACS signal [7]: 698; FACS signal [8]: 829; FACS signal [9]: 930; FACS signal [10]: 878
B2	0.033	2.11	35.7	57.7	129	438	975	1170	1500	Kd [20]: 0.164 nM
B3	0.078	1.07	23.4	43	108	218	404	405	301	EC50 [21]: 0.23 nM; FACS signal [22]: 426; EC50 [23]: 1.33 nM; OD450 [24]: 0.051 OD
